From patent US20070254313A1, “Gnal Splice Variant and Uses Thereof” (AstraZeneca AB, priority 2003, published 2007)

Tests used:
[1] = biological target: human dopamine D1A receptor (human) (UniProt P21728); assay: cell-based or functional assay
[2] = biological target: human adenosine A2a receptor (ADORA2A) (human) (UniProt P29274); assay: cell-based or functional assay
Sequence of human adenosine A2a receptor (ADORA2A) (human) (P29274 whole entry): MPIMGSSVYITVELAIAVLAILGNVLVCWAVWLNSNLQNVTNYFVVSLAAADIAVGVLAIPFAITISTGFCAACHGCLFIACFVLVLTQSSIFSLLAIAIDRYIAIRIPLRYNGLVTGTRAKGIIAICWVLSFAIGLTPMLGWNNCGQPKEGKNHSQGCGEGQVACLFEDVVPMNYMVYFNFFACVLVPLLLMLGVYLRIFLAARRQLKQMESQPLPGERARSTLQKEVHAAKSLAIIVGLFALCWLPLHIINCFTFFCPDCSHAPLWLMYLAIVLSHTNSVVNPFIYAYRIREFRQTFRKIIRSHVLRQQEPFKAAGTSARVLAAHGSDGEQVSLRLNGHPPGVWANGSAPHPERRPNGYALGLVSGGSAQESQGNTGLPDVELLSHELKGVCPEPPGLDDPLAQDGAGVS

Sequence of human Golf protein (P38405 2-381 limits assumed): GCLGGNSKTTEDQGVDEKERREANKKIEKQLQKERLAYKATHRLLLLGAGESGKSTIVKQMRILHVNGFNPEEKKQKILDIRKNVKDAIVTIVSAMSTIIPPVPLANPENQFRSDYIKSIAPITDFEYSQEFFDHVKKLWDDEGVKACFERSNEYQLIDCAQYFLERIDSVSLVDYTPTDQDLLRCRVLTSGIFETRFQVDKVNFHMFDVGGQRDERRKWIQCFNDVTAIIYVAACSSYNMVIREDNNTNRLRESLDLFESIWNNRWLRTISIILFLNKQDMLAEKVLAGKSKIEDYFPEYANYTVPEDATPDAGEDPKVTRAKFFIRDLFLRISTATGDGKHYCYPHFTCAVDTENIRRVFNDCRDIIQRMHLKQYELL
Sequence of human dopamine D1A receptor (human) (P21728 whole entry): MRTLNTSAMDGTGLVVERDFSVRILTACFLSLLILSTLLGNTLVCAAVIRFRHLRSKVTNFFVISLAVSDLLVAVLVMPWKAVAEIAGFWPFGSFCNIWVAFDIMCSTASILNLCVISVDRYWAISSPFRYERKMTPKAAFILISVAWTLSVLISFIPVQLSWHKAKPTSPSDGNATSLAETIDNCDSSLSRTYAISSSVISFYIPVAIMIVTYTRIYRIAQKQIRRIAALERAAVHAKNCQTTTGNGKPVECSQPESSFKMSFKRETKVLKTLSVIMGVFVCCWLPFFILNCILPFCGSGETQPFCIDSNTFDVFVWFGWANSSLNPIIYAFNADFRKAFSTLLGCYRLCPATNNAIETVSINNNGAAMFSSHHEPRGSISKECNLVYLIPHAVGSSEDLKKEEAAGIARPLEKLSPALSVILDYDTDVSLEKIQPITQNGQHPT

- efficacy (Emax) of dopamine-induced [35S]-GTPγS binding, membranes of Sf9 cells co-expressing DRD1 and Golf [1]: 231%
- induction of GTPγS agonist signal, A2a receptor co-expressed with Golf in Sf9 cells [2]: 0.2
Substance: human Golf protein (from UniProt P38405 2-381)
